{
  "source": "patent US20250121082A1",
  "about": "(SHANDONG BOAN BIOTECHNOLOGY, published 2025)",
  "binders": {"B1": {"name": "CA149-BNLD11 (antibody, human IgG1, kappa, V domains shown)", "VH": "EVQLVESGGGVVQPGRSLRLSCAASGFTFSSYAMHWVRQAPGKGLEWVAVISFDGSNKYYTDSVKGRFTISRDNSKNTLYLQMNSLRAEDTAVYYCAREVPYYYGSGPFDYWGQGTLVTVSS", "VL": "EIVLTQSPATLSVSPGERATLSCRASQSVSSNLAWYQQKPGQAPRHLIDGASSRASGIPDRFSGSGSGTDFTLTISRLEPEDFAVYYCQQYGSSPPFTFGPGTKVDIKR", "modifications": "BNLD11 linker-drug coupled to the TCEP-reduced antibody; sites not stated; BNLD11 linker-drug (MC-β-Ala-(glucuronide)PAB-MMAE) coupled to the TCEP-reduced antibody, average DAR 4.1; sites not stated"}},
  "assay_in_all_cases": "cell-based or functional assay",
  "key": {"[1]": {"target": "T1, CD228 on cells stably expressing exogenous CD228 gene (MC38-CD228, A375-CD228, A549-CD228) (UniProt P08582 20-709)", "T1 sequence (looked up)": "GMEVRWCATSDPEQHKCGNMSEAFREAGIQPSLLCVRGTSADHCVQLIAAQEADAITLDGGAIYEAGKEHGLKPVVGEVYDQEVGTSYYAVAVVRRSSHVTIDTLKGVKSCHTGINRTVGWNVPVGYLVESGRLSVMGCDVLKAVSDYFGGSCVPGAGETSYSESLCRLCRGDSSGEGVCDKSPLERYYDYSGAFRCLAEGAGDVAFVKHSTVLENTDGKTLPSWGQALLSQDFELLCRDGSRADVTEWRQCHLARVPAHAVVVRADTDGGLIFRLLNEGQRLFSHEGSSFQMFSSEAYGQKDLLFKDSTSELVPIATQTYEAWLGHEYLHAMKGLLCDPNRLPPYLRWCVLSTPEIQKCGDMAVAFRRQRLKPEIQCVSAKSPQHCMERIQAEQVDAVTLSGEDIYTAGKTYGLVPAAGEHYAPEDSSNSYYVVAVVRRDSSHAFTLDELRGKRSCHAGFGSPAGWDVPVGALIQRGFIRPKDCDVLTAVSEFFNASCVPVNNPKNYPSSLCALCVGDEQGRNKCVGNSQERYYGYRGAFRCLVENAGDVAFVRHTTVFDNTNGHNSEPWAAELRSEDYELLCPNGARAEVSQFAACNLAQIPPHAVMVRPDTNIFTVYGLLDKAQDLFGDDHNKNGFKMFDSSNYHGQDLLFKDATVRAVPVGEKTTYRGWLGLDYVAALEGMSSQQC"}, "[2]": {"target": "T1, CD228 on cells stably expressing …", "remark": "listed apart in the source"}, "[3]": {"target": "T2, CD228 protein on human melanoma SK-MEL-5 cells (human, UniProt P08582 20-709)", "T2 sequence (looked up)": "T1 sequence (looked up)"}},
  "note": "Where two headings read alike, the source gives them in different places.",
  "data": [
    {"binder": "B1", "values": [
      {"measurement": "IC50 (ng/mL), inhibition of A375-CD228 cell proliferation", "setting": "[1]", "value": 61.8, "unit": "ng/mL"},
      {"measurement": "IC50 (ng/mL), inhibition of MC38-CD228 cell proliferation", "setting": "[1]", "value": 102, "unit": "ng/mL"},
      {"measurement": "IC50 (ng/mL), inhibition of A375-CD228 cell proliferation", "setting": "[2]", "value": 13.9, "unit": "ng/mL"},
      {"measurement": "IC50 (ng/mL), inhibition of A549-CD228 cell proliferation", "setting": "[2]", "value": 15.2, "unit": "ng/mL"},
      {"measurement": "IC50 (ng/mL), inhibition of SK-MEL-5 cell proliferation", "setting": "[3]", "value": 11.5, "unit": "ng/mL"}
    ]}
  ]
}
